Assay results from patent US20130029377.

Target: Apolipoprotein A-1 Milano (ApoA-1M)
Sequence (chain, as listed by the source): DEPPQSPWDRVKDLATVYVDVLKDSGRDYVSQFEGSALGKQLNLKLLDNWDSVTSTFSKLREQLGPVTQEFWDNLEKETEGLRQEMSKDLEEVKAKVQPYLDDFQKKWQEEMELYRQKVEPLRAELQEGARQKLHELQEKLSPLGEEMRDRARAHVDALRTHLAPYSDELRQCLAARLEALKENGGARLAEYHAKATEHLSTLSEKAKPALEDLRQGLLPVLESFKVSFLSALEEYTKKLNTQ

B1: outer membrane protease 3B (Protease 7 precursor, or OmpT) (protein)
chain: STETLSFTPDNINADISLGTLSGKTKERVYLAEEGGRKVSQLDWKFNNAAIIKGAINWDLMPQISIGAAGWTTLGSRGGNMVDQDWMDSSNPGTWTDESRHPDTQLNYANEFDLNIKGWLLNEPNYRLGLMAGYQESRYSFTARGGSYIYSSEEGFRDDIGSFPNGERAIGYKQRFKMPYIGLTGSYRYEDFELGGTFKYSGWVESSDNDEHYDPGKRITYRSKVKDQNYYSVAVNAGYYVTPNAKVYVEGAWNRVTNKKGNTSLYDHNNNTSDYSKNGAGIENYNFITTAGLKYTF
ApoA-1M K238/K239 truncated species (% total ApoA-1M), Capture pool, ompT+ strain ΔdppAΔoppAΔmalE (% total ApoA-1M): 1.9
ApoA-1M K238/K239 truncated species (% total ApoA-1M), DEAE pool, ompT+ strain ΔdppAΔoppAΔmalE (% total ApoA-1M): 1.3
ApoA-1M K238/K239 truncated species (% total ApoA-1M), DEAE post-peak pool, ompT+ strain ΔdppAΔoppAΔmalE (% total ApoA-1M): 7
ApoA-1M K238/K239 truncated species (% total ApoA-1M), selected DEAE post-peak fraction, ompT+ strain ΔdppAΔoppAΔmalE (% total ApoA-1M): 14.2
K238/K239 truncation of ApoA-1M, ompT+ strain against ΔompT strain: marked (~5- to 20-fold) reduction in the amount of truncated ApoA-1M in the GB004 strain compared with the 3K0 strain
